Like-named read-outs stand apart in the source and are kept apart here.
Tests used:
NagS [1] = target: T1, NagS (Streptomyces coelicolor, UniProt Q9K3V1); experiment: X-ray crystal structure ([…] Å); competitive inhibition kinetics; thermal denaturation; type: biochemical
T1 construct: gene SCO4393; N-terminally His6-tagged NagS
T1 sequence (Q9K3V1 1-251): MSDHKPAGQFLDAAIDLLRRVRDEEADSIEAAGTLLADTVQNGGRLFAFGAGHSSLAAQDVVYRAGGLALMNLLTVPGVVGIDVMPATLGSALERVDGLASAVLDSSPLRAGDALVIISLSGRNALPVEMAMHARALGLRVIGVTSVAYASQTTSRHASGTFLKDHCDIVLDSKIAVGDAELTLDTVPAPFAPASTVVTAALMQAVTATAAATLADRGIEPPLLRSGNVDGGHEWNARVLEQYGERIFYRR

NagS [2] = target: T2, NagS (Streptomyces coelicolor, UniProt Q9K3V1, S54A); type: biochemical
T2 construct: gene SCO4393

purified protein [3] = substrate: CC(=O)N[C@@H]1C(O)O[C@H](COP(=O)(O)O)[C@@H](O)[C@@H]1O; experiment: purified protein
purified protein [4] = substrate: CC(=O)N[C@H]1C(O)O[C@H](COP(=O)(O)O)[C@@H](O)[C@@H]1O; experiment: purified protein
[5] = target: the molecule itself; experiment: SEC; analytical size-exclusion chromatography, Superdex 200 10/300 GL, NagS at 35 uM and 70 uM, 20 mM HEPES pH 7.5, 300 mM NaCl, 5% glycerol, 1 mM DTT; calibrated with a protein standard mix (15-600 kDa)
purified protein [6] = substrate: CC(=O)N[C@H]1C(O)O[C@H](COP(=O)(O)O)[C@H](O)[C@@H]1O; experiment: purified protein; settings: divalent metal cation ([…] ZnCl2 supplemented during expression)
[7] = catalytic site formed by both monomers, Ser54, Ser91, Glu94, Ser119, Ser121, His53 main chain, ArgB64, AsnB228, AlaB65, GlyB227
[8] = divalent metal cation ([…] ZnCl2 supplemented during expression)

T2 sequence (Q9K3V1 whole entry S54A): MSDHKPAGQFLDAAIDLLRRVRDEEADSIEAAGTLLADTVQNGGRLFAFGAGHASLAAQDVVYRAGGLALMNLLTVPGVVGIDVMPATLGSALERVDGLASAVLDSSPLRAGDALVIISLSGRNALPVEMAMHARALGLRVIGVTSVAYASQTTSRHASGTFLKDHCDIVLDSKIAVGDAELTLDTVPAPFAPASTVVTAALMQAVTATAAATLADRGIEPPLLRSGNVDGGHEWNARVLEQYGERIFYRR

**Q.** For `O=C(O)[C@H](O)[C@@H](O)[C@H](O)[C@H](O)COP(=O)(O)O` [6-phosphogluconate], which Ki (NagS [1]) is on record?
**A.** 280 ± 30 µM

**Q.** With `CC(=O)N[C@H]1C(O)O[C@H](COP(=O)(O)O)[C@@H](O)[C@@H]1O` (stereo partly drawn) [GlcNAc-6P] as the molecule, how does the Km (NagS [2]) read?
**A.** 850 ± 90 µM

B1: GlcNAc-6P dehydratase NagS (SCO4393) of Streptomyces coelicolor (enzyme, UniProt Q9K3V1 1-251, looked up)
chain: T1 sequence (Q9K3V1 1-251)
notes: NagS (SCO4393), Streptomyces coelicolor A3(2) M145; calculated mass of the NagS-His6 monomer 28.29 kDa; The methods say N-terminally His6-tagged (pET-15b); the results write NagS-His6; also called NagS-His6; N-acetylglucosamine-6-phosphate dehydratase; source: E. coli Rosetta (DE3)pLysS, purified (Ni-NTA, size-exclusion chromatography on Superdex 200); not shown: His6, N-terminal, kept
**Q.** What does the source list for B1?
**A.** Km (purified protein [3]): 680 ± 50 µM; kcat (purified protein [3]): 0.9 ± 0.02 s⁻¹; kcat/Km (purified protein [3]): 1320 M⁻¹ s⁻¹; Km (purified protein [4]; [7]): 450 ± 30 µM; kcat (purified protein [4]; [7]): 24.7 ± 0.38 s⁻¹; kcat/Km (purified protein [4]; [7]): 54800 M⁻¹ s⁻¹; stoichiometry N [5]: 2

B2: NagA (Streptomyces coelicolor A3(2)) (protein)
chain: MAPSKVLAGARVVLPTGTVDDGRVIVDGARIADTAPPQAETVDLAGHWVVPGFVDIHNHGGGGASFAGGTAEEILAGVETHRRHGTTTVVASAVTGDLDFLARHAGMLAELAQQGDIVGIHFEGPFISPCRKGAHDEQLLRDPDPAEVRKLVDAAHGHAKMMTLATELPGGLDSVRLLVEHGVIAAVGHTDATYEQTVQAIDAGATVATHLFNAMPPVGHRAPGPITALLEDERITVELINDGTHLHPAALQLAFHHAGAARVAFITDAMDAAGFGDGHYLLGPLEVEVADGVARLVEGGSIAGSTLTLDRAFKRAVTVDRLPVGDVVAAISANPARLLGLDDRIGSLEPGKDADLVVLDDAFDLVGVMRRGEWVVDPHLG
**Q.** How did the Km (purified protein [3]; [8]) turn out when B2 was run?
**A.** 2400 ± 440 µM

**Q.** What about the kcat (purified protein [3]; [8]) of the same molecule?
**A.** 14.6 ± 1.1 s⁻¹

**Q.** What about the kcat/Km (purified protein [3]; [8]) of the same molecule?
**A.** 6060 M⁻¹ s⁻¹

**Q.** And the Km (purified protein [4]; [8])?
**A.** 1590 ± 210 µM

**Q.** And the kcat (purified protein [4]; [8])?
**A.** 160 ± 9.02 s⁻¹

**Q.** What about the kcat/Km (purified protein [4]; [8]) of the same molecule?
**A.** 101000 M⁻¹ s⁻¹

**Q.** What about the Km (purified protein [6]) of the same molecule?
**A.** 2840 ± 410 µM

**Q.** What about the kcat (purified protein [6]) of the same molecule?
**A.** 29.2 ± 2.31 s⁻¹

**Q.** And the kcat/Km (purified protein [6])?
**A.** 10300 M⁻¹ s⁻¹

From paper PMC12680351, “The novel GlcNAc 6-phosphate dehydratase NagS governs a metabolic checkpoint that controls nutrient signaling in Streptomyces” (PLOS Biology, 2025)
